Data on one substance can be found in PMC6073801.

Assay [1] has as its target ECD_FGFR1-Fc receptor (extracellular region of fibroblast growth factor receptor 1) (UniProt P11362).
Assay [2] has the same target. The source holds these as a separate data set.

UniProt P11362, sequence (P11362 22-376): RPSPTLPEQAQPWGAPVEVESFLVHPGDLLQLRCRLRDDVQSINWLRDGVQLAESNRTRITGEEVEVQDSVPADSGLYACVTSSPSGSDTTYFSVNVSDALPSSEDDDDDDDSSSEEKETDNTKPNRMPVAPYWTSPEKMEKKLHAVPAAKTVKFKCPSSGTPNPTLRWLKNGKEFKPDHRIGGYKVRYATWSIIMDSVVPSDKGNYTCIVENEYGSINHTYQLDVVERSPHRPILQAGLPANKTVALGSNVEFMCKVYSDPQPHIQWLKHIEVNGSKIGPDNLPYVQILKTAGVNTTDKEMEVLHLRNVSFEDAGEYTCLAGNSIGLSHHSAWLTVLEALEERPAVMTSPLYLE

Consider “FGF2 Cys78-α-amanitin/PrK96-MMAE conjugate (from UniProt P09038-2 23-155) (ligand)”, for which, in assay [1], the cytotoxicity (AlamarBlue viability), FGFR1-positive NCI-H446 cells, reduction of viability at the highest tested concentration; no toxicity for FGFR1-negative HCC-15 turned out to be 95%. In assay [2], the internalization of the DyLight550-labelled conjugate, intracellular fluorescence, NCI-H520 (FGFR1 positive) against HCC-15 (FGFR1 negative) cells was 2 times and the internalization of the DyLight550-labelled conjugate, intracellular fluorescence, U2OS-FGFR1 against control U2OS cells stood at 5 fold.
